Data published in patent US12043670B2, “Anti-BCMA antibody-drug conjugates and methods of use” (Eisai R&D Management Co., Ltd., priority 2020, dated 2024).

Experiment: ThermoFluor thermostability (Tm)
Assay type: physicochemical
Details: Light chain screening Round 2; Fab, paired with heavy chain AB200_R1_VH26

| Molecule | Tm [°C] |
| --- | --- |
| AB200-R1H26-R2Vk18 (antibody) heavy: QVQLVQSGAEVKKPGSSVKVSCKASGGSFSNYWMHWVRQAPGQGLEWMGATYRIHSDTFYNQKFKGRVTITADKSTSTAYMELSSLRSEDTAVYYCARGAIYHGYDVLDNWGQGTLVTVSSASTKGPSVFPLAPSSKSTSGGTAALGCLVKDYFPEPVTVSWNSGALTSGVHTFPAVLQSSGLYSLSSVVTVPSSSLGTQTYICNVNHKPSNTKVDKKVEPKSC light: DIQMTQSPSSLSASVGDRVTITCRASQSISSYINWYQQKPGKAPKLLIYAASSLQSGVPSRFSGSGSGTDFTLTISSLQPEDFATYYCQQFRKIPWTFGQGTKLEIKRTVAAPSVFIFPPSDEQLKSGTASVVCLLNNFYPREAKVQWKVDNALQSGNSQESVTEQDSKDSTYSLSSTLTLSKADYEKHKVYACEVTHQGLSSPVTKSFNRGEC | 82.729 |
| AB200-R1H26-R2Vk2 (antibody) heavy: QVQLVQSGAEVKKPGSSVKVSCKASGGSFSNYWMHWVRQAPGQGLEWMGATYRIHSDTFYNQKFKGRVTITADKSTSTAYMELSSLRSEDTAVYYCARGAIYHGYDVLDNWGQGTLVTVSSASTKGPSVFPLAPSSKSTSGGTAALGCLVKDYFPEPVTVSWNSGALTSGVHTFPAVLQSSGLYSLSSVVTVPSSSLGTQTYICNVNHKPSNTKVDKKVEPKSC light: DIQMTQSPSSLSASVGDRVTITCRASQSISSYINWYQQKPGKAPKLLIYAASSLQSGVPSRFSGSGSGTDFTLTISSLQPEDFATYYCQQFRKLPWSFGQGTKLEIKRTVAAPSVFIFPPSDEQLKSGTASVVCLLNNFYPREAKVQWKVDNALQSGNSQESVTEQDSKDSTYSLSSTLTLSKADYEKHKVYACEVTHQGLSSPVTKSFNRGEC | 82.119 |
| AB200-R1H26-R2Vk28 (antibody) heavy: QVQLVQSGAEVKKPGSSVKVSCKASGGSFSNYWMHWVRQAPGQGLEWMGATYRIHSDTFYNQKFKGRVTITADKSTSTAYMELSSLRSEDTAVYYCARGAIYHGYDVLDNWGQGTLVTVSSASTKGPSVFPLAPSSKSTSGGTAALGCLVKDYFPEPVTVSWNSGALTSGVHTFPAVLQSSGLYSLSSVVTVPSSSLGTQTYICNVNHKPSNTKVDKKVEPKSC light: DIQMTQSPSSLSASVGDRVTITCRASQSISSYLNWYQQKPGKAPKLLIYATSNIQSGVPSRFSGSGSGTDFTLTISSLQPEDFATYYCQQFRKIPWTFGQGTKLEIKRTVAAPSVFIFPPSDEQLKSGTASVVCLLNNFYPREAKVQWKVDNALQSGNSQESVTEQDSKDSTYSLSSTLTLSKADYEKHKVYACEVTHQGLSSPVTKSFNRGEC | 82.966 |
| AB200-R1H26-R2Vk43 (antibody) heavy: QVQLVQSGAEVKKPGSSVKVSCKASGGSFSNYWMHWVRQAPGQGLEWMGATYRIHSDTFYNQKFKGRVTITADKSTSTAYMELSSLRSEDTAVYYCARGAIYHGYDVLDNWGQGTLVTVSSASTKGPSVFPLAPSSKSTSGGTAALGCLVKDYFPEPVTVSWNSGALTSGVHTFPAVLQSSGLYSLSSVVTVPSSSLGTQTYICNVNHKPSNTKVDKKVEPKSC light: DIQMTQSPSSLSASVGDRVTITCRASQSISSYINWYQQKPGKAPKLLIYATSNIQSGVPSRFSGSGSGTDFTLTISSLQPEDFATYYCQQFRKIPWTFGQGTKLEIKRTVAAPSVFIFPPSDEQLKSGTASVVCLLNNFYPREAKVQWKVDNALQSGNSQESVTEQDSKDSTYSLSSTLTLSKADYEKHKVYACEVTHQGLSSPVTKSFNRGEC | 82.001 |
| AB200-R1H26-R2Vk37 (antibody) heavy: QVQLVQSGAEVKKPGSSVKVSCKASGGSFSNYWMHWVRQAPGQGLEWMGATYRIHSDTFYNQKFKGRVTITADKSTSTAYMELSSLRSEDTAVYYCARGAIYHGYDVLDNWGQGTLVTVSSASTKGPSVFPLAPSSKSTSGGTAALGCLVKDYFPEPVTVSWNSGALTSGVHTFPAVLQSSGLYSLSSVVTVPSSSLGTQTYICNVNHKPSNTKVDKKVEPKSC light: DIQMTQSPSSLSASVGDRVTITCRASQSISSYINWYQQKPGKAPKLLIYATSNLQSGVPSRFSGSGSGTDFTLTISSLQPEDFATYYCQQYRKIPWSFGQGTKLEIKRTVAAPSVFIFPPSDEQLKSGTASVVCLLNNFYPREAKVQWKVDNALQSGNSQESVTEQDSKDSTYSLSSTLTLSKADYEKHKVYACEVTHQGLSSPVTKSFNRGEC | 79.374 |
| AB200-R1H26-R2Vk38 (antibody) heavy: QVQLVQSGAEVKKPGSSVKVSCKASGGSFSNYWMHWVRQAPGQGLEWMGATYRIHSDTFYNQKFKGRVTITADKSTSTAYMELSSLRSEDTAVYYCARGAIYHGYDVLDNWGQGTLVTVSSASTKGPSVFPLAPSSKSTSGGTAALGCLVKDYFPEPVTVSWNSGALTSGVHTFPAVLQSSGLYSLSSVVTVPSSSLGTQTYICNVNHKPSNTKVDKKVEPKSC light: DIQMTQSPSSLSASVGDRVTITCRASQSISSYINWYQQKPGKAPKLLIYATSNLQSGVPSRFSGSGSGTDFTLTISSLQPEDFATYYCQQFRKIPWTFGQGTKLEIKRTVAAPSVFIFPPSDEQLKSGTASVVCLLNNFYPREAKVQWKVDNALQSGNSQESVTEQDSKDSTYSLSSTLTLSKADYEKHKVYACEVTHQGLSSPVTKSFNRGEC | 83.791 |
| AB200-R1H26-R2Vk47 (antibody) heavy: QVQLVQSGAEVKKPGSSVKVSCKASGGSFSNYWMHWVRQAPGQGLEWMGATYRIHSDTFYNQKFKGRVTITADKSTSTAYMELSSLRSEDTAVYYCARGAIYHGYDVLDNWGQGTLVTVSSASTKGPSVFPLAPSSKSTSGGTAALGCLVKDYFPEPVTVSWNSGALTSGVHTFPAVLQSSGLYSLSSVVTVPSSSLGTQTYICNVNHKPSNTKVDKKVEPKSC light: DIQMTQSPSSLSASVGDRVTITCRASQSISSYINWYQQKPGKAPKLLIYATSNLQIGVPSRFSGSGSGTDFTLTISSLQPEDFATYYCQQYRKIPWSFGQGTKLEIKRTVAAPSVFIFPPSDEQLKSGTASVVCLLNNFYPREAKVQWKVDNALQSGNSQESVTEQDSKDSTYSLSSTLTLSKADYEKHKVYACEVTHQGLSSPVTKSFNRGEC | 78.634 |
| AB200-R1H26-R2Vk42 (antibody) heavy: QVQLVQSGAEVKKPGSSVKVSCKASGGSFSNYWMHWVRQAPGQGLEWMGATYRIHSDTFYNQKFKGRVTITADKSTSTAYMELSSLRSEDTAVYYCARGAIYHGYDVLDNWGQGTLVTVSSASTKGPSVFPLAPSSKSTSGGTAALGCLVKDYFPEPVTVSWNSGALTSGVHTFPAVLQSSGLYSLSSVVTVPSSSLGTQTYICNVNHKPSNTKVDKKVEPKSC light: DIQMTQSPSSLSASVGDRVTITCRASQSISSYINWYQQKPGKAPKLLIYATSNIQSGVPSRFSGSGSGTDFTLTISSLQPEDFATYYCQQYRKIPWSFGQGTKLEIKRTVAAPSVFIFPPSDEQLKSGTASVVCLLNNFYPREAKVQWKVDNALQSGNSQESVTEQDSKDSTYSLSSTLTLSKADYEKHKVYACEVTHQGLSSPVTKSFNRGEC | 78.411 |
| AB200-R1H26-R2Vk40 (antibody) heavy: QVQLVQSGAEVKKPGSSVKVSCKASGGSFSNYWMHWVRQAPGQGLEWMGATYRIHSDTFYNQKFKGRVTITADKSTSTAYMELSSLRSEDTAVYYCARGAIYHGYDVLDNWGQGTLVTVSSASTKGPSVFPLAPSSKSTSGGTAALGCLVKDYFPEPVTVSWNSGALTSGVHTFPAVLQSSGLYSLSSVVTVPSSSLGTQTYICNVNHKPSNTKVDKKVEPKSC light: DIQMTQSPSSLSASVGDRVTITCRASQSISSYINWYQQKPGKAPKLLIYATSNIQSGVPSRFSGSGSGTDFTLTISSLQPEDFATYYCQQYRRIPWTFGQGTKLEIKRTVAAPSVFIFPPSDEQLKSGTASVVCLLNNFYPREAKVQWKVDNALQSGNSQESVTEQDSKDSTYSLSSTLTLSKADYEKHKVYACEVTHQGLSSPVTKSFNRGEC | 79.308 |
| AB200-R1H26-R2Vk27 (antibody) heavy: QVQLVQSGAEVKKPGSSVKVSCKASGGSFSNYWMHWVRQAPGQGLEWMGATYRIHSDTFYNQKFKGRVTITADKSTSTAYMELSSLRSEDTAVYYCARGAIYHGYDVLDNWGQGTLVTVSSASTKGPSVFPLAPSSKSTSGGTAALGCLVKDYFPEPVTVSWNSGALTSGVHTFPAVLQSSGLYSLSSVVTVPSSSLGTQTYICNVNHKPSNTKVDKKVEPKSC light: DIQMTQSPSSLSASVGDRVTITCRASQSISSYLNWYQQKPGKAPKLLIYATSNIQSGVPSRFSGSGSGTDFTLTISSLQPEDFATYYCQQYRKIPWSFGQGTKLEIKRTVAAPSVFIFPPSDEQLKSGTASVVCLLNNFYPREAKVQWKVDNALQSGNSQESVTEQDSKDSTYSLSSTLTLSKADYEKHKVYACEVTHQGLSSPVTKSFNRGEC | 79.104 |
| AB200-R1H26-R2Vk41 (antibody) heavy: QVQLVQSGAEVKKPGSSVKVSCKASGGSFSNYWMHWVRQAPGQGLEWMGATYRIHSDTFYNQKFKGRVTITADKSTSTAYMELSSLRSEDTAVYYCARGAIYHGYDVLDNWGQGTLVTVSSASTKGPSVFPLAPSSKSTSGGTAALGCLVKDYFPEPVTVSWNSGALTSGVHTFPAVLQSSGLYSLSSVVTVPSSSLGTQTYICNVNHKPSNTKVDKKVEPKSC light: DIQMTQSPSSLSASVGDRVTITCRASQSISSYINWYQQKPGKAPKLLIYATSNIQSGVPSRFSGSGSGTDFTLTISSLQPEDFATYYCQQFRRLPWTFGQGTKLEIKRTVAAPSVFIFPPSDEQLKSGTASVVCLLNNFYPREAKVQWKVDNALQSGNSQESVTEQDSKDSTYSLSSTLTLSKADYEKHKVYACEVTHQGLSSPVTKSFNRGEC | 83.256 |
| AB200-R1H26-R2Vk39 (antibody) heavy: QVQLVQSGAEVKKPGSSVKVSCKASGGSFSNYWMHWVRQAPGQGLEWMGATYRIHSDTFYNQKFKGRVTITADKSTSTAYMELSSLRSEDTAVYYCARGAIYHGYDVLDNWGQGTLVTVSSASTKGPSVFPLAPSSKSTSGGTAALGCLVKDYFPEPVTVSWNSGALTSGVHTFPAVLQSSGLYSLSSVVTVPSSSLGTQTYICNVNHKPSNTKVDKKVEPKSC light: DIQMTQSPSSLSASVGDRVTITCRASQSISSYINWYQQKPGKAPKLLIYATSNIQSGVPSRFSGSGSGTDFTLTISSLQPEDFATYYCQQYRRLPWSFGQGTKLEIKRTVAAPSVFIFPPSDEQLKSGTASVVCLLNNFYPREAKVQWKVDNALQSGNSQESVTEQDSKDSTYSLSSTLTLSKADYEKHKVYACEVTHQGLSSPVTKSFNRGEC | 78.907 |
